Measured values published in article PMC3702670 (Nature structural & molecular biology, 2013).
Like-named read-outs stand apart in the source and are kept apart here.

Columns and labels:
[1] = biological target: T1, GR DBD WT (rat, UniProt P06536 440-525); assay: NMR
[2] = biological target: T1, GR DBD WT; assay: NMR; remark: listed apart in the source
[3] = biological target: T2, GR DBD A477T (rat, UniProt P06536 440-525, A477T); assay: NMR
[4] = biological target: T1, GR DBD WT; assay: NMR; remark: listed apart in the source
[5] = biological target: T2, GR DBD A477T; assay: NMR; remark: listed apart in the source
[6] = biological target: the molecule itself; assay: […]
[7] = biological target: the molecule itself; assay: SPR
[8] = biological target: T1, GR DBD WT; assay: SPR

B1: Sgk-ggg GBS (dsDNA)
DNA 1: GTACAGAACAGGGTGTCCGTCGAC
DNA 2: GTCGACGGACACCCTGTTCTGTAC
- binding result [1]: binds

B2: Gha GBS (dsDNA)
DNA 1: GTACGGAACATAATGTTCCTCGAC
DNA 2: GTCGAGGAACATTATGTTCCGTAC
- binding result [2]: binds
- binding result [3]: binds

B3: Pal-ttg GBS (dsDNA)
DNA 1: GTACAGAACATTGTGTTCTTCGAC
DNA 2: GTCGAAGAACACAATGTTCTGTAC
- binding result [4]: binds

B4: Fkbp5 GBS (dsDNA)
DNA 1: GTACAGAACAGGGTGTTCTTCGAC
DNA 2: GTCGAAGAACACCCTGTTCTGTAC
- binding result [5]: binds
- binding result [1]: binds

B5: Sgk GBS (dsDNA)
DNA 1: GTACAGAACATTTTGTCCGTCGAC
DNA 2: GTCGACGGACAAAATGTTCTGTAC
- binding result [3]: binds
- binding result [1]: binds

B6: rat glucocorticoid receptor DNA binding domain, wild type (domain or fragment)
chain: CLVCSDEASGCHYGVLTCGSCKVFFKRAVEGQHNYLCAGRNDCIIDKIRRKNCPACRYRKCLQAGMNLEARKTKKKIKGIQQATAG
- binding result [6]: binds

B7: rat glucocorticoid receptor DNA binding domain, [change] mutant (domain or fragment)
chain: CLVCSDEASGCHYGVLTCGSCKVFFKRAVEGQHNYLCTGRNDCIIDKIRRKNCPACRYRKCLQAGMNLEARKTKKKIKGIQQATAG
- binding result [7]: binds

B8: Gilz GBS (dsDNA)
DNA 1: GTACAGAACATTGGGTTCCTCGAC
DNA 2: GTCGAGGAACCCAATGTTCTGTAC
- binding result [4]: binds

B9: Pal-R GBS (dsDNA)
DNA 1: GTACAGAACATTTTGTTCTTCGAC
DNA 2: GTCGAAGAACAAAATGTTCTGTAC
- binding result [8]: binds
